In patent US20150071856A1 (UNIVERSITEIT MAASTRICHT, published 2015):
No end group written: not given here. alkyl = not defined here

Target: T1, rFzd-2 (frizzled-2 receptor) (rat, UniProt Q08464 29-570)
Test: cell-based or functional assay

T1 sequence (Q08464 29-570): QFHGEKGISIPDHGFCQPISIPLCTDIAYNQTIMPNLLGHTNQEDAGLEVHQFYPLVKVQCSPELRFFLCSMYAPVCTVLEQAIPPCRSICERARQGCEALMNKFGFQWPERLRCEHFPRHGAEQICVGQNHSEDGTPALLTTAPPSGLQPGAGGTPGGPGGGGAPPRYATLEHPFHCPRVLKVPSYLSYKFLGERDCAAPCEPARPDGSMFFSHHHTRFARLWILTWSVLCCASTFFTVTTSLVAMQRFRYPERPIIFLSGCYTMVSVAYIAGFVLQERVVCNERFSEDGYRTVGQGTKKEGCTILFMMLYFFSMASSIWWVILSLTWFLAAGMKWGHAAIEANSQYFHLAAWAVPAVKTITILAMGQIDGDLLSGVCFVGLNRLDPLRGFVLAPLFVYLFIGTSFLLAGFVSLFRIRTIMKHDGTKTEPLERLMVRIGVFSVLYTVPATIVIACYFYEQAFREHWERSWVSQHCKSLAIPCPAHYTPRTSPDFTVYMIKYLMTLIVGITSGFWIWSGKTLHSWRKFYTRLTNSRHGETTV

Row | IC50, inhibition of Wnt3a (10^-9 M)-induced luciferase, HEK293-superTOPflash, single binding site fit [nM] | IC50, inhibition of Wnt3a (10^-9 M)-induced luciferase, HEK293-superTOPflash, two-binding-state fit [nM] | affinity ratio against rFzd-1, from reporter IC50 values [fold] | Binder
1 | 15.2 | – | – | Ac-GIKECQYQFRHRRWNCSTVD-NH2 (cysteine pairing not given here)
2 | – | 0.0169 | ~100 | Ac-CNKTSEGMDGCEL-NH2 (cysteine pairing not given here) [Peptide UM206 (linear), Ac-Cys-Asn-Lys-Thr-Ser-Glu-Gly-Met-Asp-Gly-Cys-Glu-Leu-NH2]
3 | 2110 | – | – | GSCSLKTCWLQLAD [UM208]

Target: T2, rFzd-1 (frizzled-1 receptor) (rat, UniProt Q08463 69-641)
Test: cell-based or functional assay

T2 sequence (Q08463 69-641): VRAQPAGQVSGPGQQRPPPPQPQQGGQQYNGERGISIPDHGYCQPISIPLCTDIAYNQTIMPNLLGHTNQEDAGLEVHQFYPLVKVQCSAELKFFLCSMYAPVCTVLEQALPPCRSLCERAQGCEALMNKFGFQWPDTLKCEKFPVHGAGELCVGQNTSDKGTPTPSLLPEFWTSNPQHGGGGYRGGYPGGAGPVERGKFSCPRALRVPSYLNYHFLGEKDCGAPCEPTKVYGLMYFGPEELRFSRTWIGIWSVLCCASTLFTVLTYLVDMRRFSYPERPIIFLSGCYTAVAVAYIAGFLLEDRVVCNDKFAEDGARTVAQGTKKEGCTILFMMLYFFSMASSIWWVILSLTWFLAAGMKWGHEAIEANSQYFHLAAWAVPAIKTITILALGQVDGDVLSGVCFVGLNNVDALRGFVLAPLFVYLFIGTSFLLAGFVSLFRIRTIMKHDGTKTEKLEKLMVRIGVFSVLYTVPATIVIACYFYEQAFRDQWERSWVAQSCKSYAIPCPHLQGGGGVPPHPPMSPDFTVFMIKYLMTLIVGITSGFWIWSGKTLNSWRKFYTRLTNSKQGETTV

Row | IC50, inhibition of Wnt3a (10^-9 M)-induced luciferase, HEK293-superTOPflash, single binding site fit [nM] | IC50, inhibition of Wnt3a (10^-9 M)-induced luciferase, HEK293-superTOPflash, two-binding-state fit [nM] | Binder
4 | 40 | – | Ac-GIKECQYQFRHRRWNCSTVD-NH2 (cysteine pairing not given here)
5 | – | 2.1 | Ac-CNKTSEGMDGCEL-NH2 (cysteine pairing not given here) [Peptide UM206 (linear), Ac-Cys-Asn-Lys-Thr-Ser-Glu-Gly-Met-Asp-Gly-Cys-Glu-Leu-NH2]
6 | 2060 | – | GSCSLKTCWLQLAD [UM208]

Target: T3, mouse Fzd-1 (mouse, UniProt O70421 69-642)
T3 construct: whole, on cells; also called frizzled-1 (mouse)
Test: competition: UM207 (1.10^-7 M) pre-incubated on mouse tissue sections, competitor UM206-rhodamine
Description: (§1) Specificity of the binding site was confirmed by prior incubation of the tissue sections with UM207 (1.10⁻⁷ M) or recombinant Wnt3a (1.10⁻⁸ M). Both compounds completely abolished the binding of UM206-rhodamine to its receptors.

T3 sequence (O70421 69-642): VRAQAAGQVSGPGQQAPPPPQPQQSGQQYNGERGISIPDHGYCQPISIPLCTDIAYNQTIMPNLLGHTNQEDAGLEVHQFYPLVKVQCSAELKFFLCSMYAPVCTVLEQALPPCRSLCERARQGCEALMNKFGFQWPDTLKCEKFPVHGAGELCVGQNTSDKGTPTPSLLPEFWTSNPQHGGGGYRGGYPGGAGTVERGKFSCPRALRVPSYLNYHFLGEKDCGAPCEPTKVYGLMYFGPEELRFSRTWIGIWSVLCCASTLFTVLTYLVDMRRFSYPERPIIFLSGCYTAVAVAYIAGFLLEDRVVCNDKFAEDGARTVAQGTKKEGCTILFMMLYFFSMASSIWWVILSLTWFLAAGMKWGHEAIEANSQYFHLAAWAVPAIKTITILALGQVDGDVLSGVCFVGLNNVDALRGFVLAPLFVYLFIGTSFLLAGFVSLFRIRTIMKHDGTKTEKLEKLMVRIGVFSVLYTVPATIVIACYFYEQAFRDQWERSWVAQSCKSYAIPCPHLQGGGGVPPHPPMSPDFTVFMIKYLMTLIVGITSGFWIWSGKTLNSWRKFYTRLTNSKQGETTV

Row | binding result | Binder
7 | binds | Ac-GIKECQYQFRHRRWNCSTVD-NH2 (cysteine pairing not given here)

Target: T4, mouse Fzd-2 (mouse, UniProt Q9JIP6 29-570)
T4 construct: whole, on cells; also called frizzled-2 (mouse)
Test: as above
Description: as §1

T4 sequence (Q9JIP6 29-570): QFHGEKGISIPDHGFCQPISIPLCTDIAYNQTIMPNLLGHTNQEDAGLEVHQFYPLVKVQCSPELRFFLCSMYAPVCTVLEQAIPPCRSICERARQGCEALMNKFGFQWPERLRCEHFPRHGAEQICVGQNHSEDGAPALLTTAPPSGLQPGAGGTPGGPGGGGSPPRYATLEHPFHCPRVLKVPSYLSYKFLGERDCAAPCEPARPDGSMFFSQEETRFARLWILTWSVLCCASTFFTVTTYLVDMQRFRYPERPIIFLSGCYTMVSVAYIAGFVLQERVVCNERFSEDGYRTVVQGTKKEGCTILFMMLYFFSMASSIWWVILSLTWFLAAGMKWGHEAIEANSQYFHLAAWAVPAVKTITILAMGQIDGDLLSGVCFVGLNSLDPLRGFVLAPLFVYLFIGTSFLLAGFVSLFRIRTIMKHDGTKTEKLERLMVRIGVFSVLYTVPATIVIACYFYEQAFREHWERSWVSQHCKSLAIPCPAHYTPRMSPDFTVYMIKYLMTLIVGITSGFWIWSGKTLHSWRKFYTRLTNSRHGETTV

Row | binding result | Binder
8 | binds | Ac-GIKECQYQFRHRRWNCSTVD-NH2 (cysteine pairing not given here)

Target: T1, rFzd-2 (frizzled-2 receptor)
Test: cell-based or functional assay
Remark: another data set of the same source

Row | Binder | % of inhibition of Wnt3a-induced luciferase activity (peptide at 1.10^-9 M) [%]
9 | ANKTSEGMDGCEL [UM206 (1 C = A)] | 82.6
10 | CNKTSAGMDGCEL [UM206 (6 E = A)] | 84.7
11 | CNKASEAMAGCEL [UM206 (4 T = A, 7 G = A, 9 D = A)] | 17.5
12 | CNKASEGMDGCEL [UM206 (4 T = A)] | 59.4
13 | CNKTSEGMDGCAL [UM206 (12 E = A)] | 85.5
14 | SNKTSEGMDGSEL [UM206 (C = S)] | 17
15 | Ac-CNKTSEGMDGCEL-NH2 (cysteine pairing not given here) [Peptide UM206 (linear), Ac-Cys-Asn-Lys-Thr-Ser-Glu-Gly-Met-Asp-Gly-Cys-Glu-Leu-NH2] | 75.1
16 | CAKTSEGMDGCEL [UM206 (2 N = A)] | 79.5
17 | CNKTSEGMAGCEL [UM206 (9 D = A)] | 60.5
18 | CNKTSEGMDGAEL [UM206 (11 C = A)] | 84.9
19 | CNKTAEGMDGCEL [UM206 (5 S = A)] | 87.3
20 | CNKTSEGMDGCEA [UM206 (13 L = A)] | 86.5
21 | CNKTSEGMDGC [UM206 - (label cut short in Table 3; taken as UM206 with the C-terminal Glu-Leu deleted)] | 61.2
22 | CNKTSEGMDACEL [UM206 (10 G = A)] | 83.3
23 | CNKTSEAMDGCEL [UM206 (7 G = A)] | 63.1
24 | CNATSEGMDGCEL [UM206 (3 K = A)] | 84.9

Results, then the binder that gave them:

Row | % of inhibition of Wnt3a-induced luciferase activity (peptide at 1.10^-9 M) [%] | Binder
25 | 62.4 | CNVSSHGIDGCDL [peptide CNVSSHGIDGCDL (SEQ ID NO: 18), derived from the area of Wnt3a homologous to UM206]
26 | 74.3 | CNKTSEGMDGCAA [UM206 (12-13 EL = AA)]
27 | 85 | CNKTSEGADGCEL [UM206 (8 M = A)]
28 | 12.4 | C(alkyl)NKTSEGMDGC(alkyl)EL (reading uncertain; also: alkyl group not given here) [UM206 (C = C-alkyl)]
29 | 8.39 | ANKTSEGMDGAEL [UM206 (C = A)]

Target: T2, rFzd-1 (frizzled-1 receptor)
Test: cell-based or functional assay
Remark: another data set of the same source

Row | Binder | % of inhibition of Wnt3a-induced luciferase activity (peptide at 1.10^-9 M) [%]
30 | ANKTSEGMDGCEL [UM206 (1 C = A)] | 70.8
31 | CNKTSAGMDGCEL [UM206 (6 E = A)] | 70.8
32 | CNKASEAMAGCEL [UM206 (4 T = A, 7 G = A, 9 D = A)] | 11.2
33 | CNKASEGMDGCEL [UM206 (4 T = A)] | 28.1
34 | CNKTSEGMDGCAL [UM206 (12 E = A)] | 65.9
35 | SNKTSEGMDGSEL [UM206 (C = S)] | 0
36 | Ac-CNKTSEGMDGCEL-NH2 (cysteine pairing not given here) [Peptide UM206 (linear), Ac-Cys-Asn-Lys-Thr-Ser-Glu-Gly-Met-Asp-Gly-Cys-Glu-Leu-NH2] | 72.2
37 | CAKTSEGMDGCEL [UM206 (2 N = A)] | 68
38 | CNKTSEGMAGCEL [UM206 (9 D = A)] | 40.5
39 | CNKTSEGMDGAEL [UM206 (11 C = A)] | 67.2
40 | CNKTAEGMDGCEL [UM206 (5 S = A)] | 74.3
41 | CNKTSEGMDGCEA [UM206 (13 L = A)] | 65.9
42 | CNKTSEGMDGC [UM206 - (label cut short in Table 3; taken as UM206 with the C-terminal Glu-Leu deleted)] | 18
43 | CNKTSEGMDACEL [UM206 (10 G = A)] | 69.9
44 | CNKTSEAMDGCEL [UM206 (7 G = A)] | 52.6
45 | CNATSEGMDGCEL [UM206 (3 K = A)] | 70.8

Results, then the binder that gave them:

Row | % of inhibition of Wnt3a-induced luciferase activity (peptide at 1.10^-9 M) [%] | Binder
46 | 45.3 | CNVSSHGIDGCDL [peptide CNVSSHGIDGCDL (SEQ ID NO: 18), derived from the area of Wnt3a homologous to UM206]
47 | 66.8 | CNKTSEGMDGCAA [UM206 (12-13 EL = AA)]
48 | 67.6 | CNKTSEGADGCEL [UM206 (8 M = A)]
49 | 1 | C(alkyl)NKTSEGMDGC(alkyl)EL (reading uncertain; also: alkyl group not given here) [UM206 (C = C-alkyl)]
50 | 0 | ANKTSEGMDGAEL [UM206 (C = A)]
